Assays:
HeLa Kyoto [1] = test: solubility change mitosis vs G1/S (difference of NP-40 vs SDS log2 ratios) (log2 ratio difference); higher = more soluble in mitosis
HeLa Kyoto [2] = test: solubility in G1/S (NP-40 vs SDS abundance) (log2 ratio); higher = more soluble; conditions: cell cycle stage: G1/S
HeLa Kyoto [3] = test: thermal stability score vs G1/S (z-score of summed log2 fold changes over temperatures); higher = more thermally stable than in G1/S
HeLa Kyoto [4] = test: melting temperature (median over replicates), in situ; higher = more thermally stable
[5] = cell cycle stage: early G1 (4.5 h after nocodazole release)
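Wherever melting temperature (median over replicates), in situ is given: HeLa Kyoto cells synchronized by double thymidine or nocodazole block, proteins quantified by TMT10plex mass spectrometry, three independent biological replicates.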
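Wherever solubility change mitosis vs G1/S (difference of NP-40 vs SDS log2 ratios) is given: synchronized HeLa Kyoto cells (double thymidine block for G1/S, nocodazole release for mitosis), protein amounts in NP-40 versus SDS lysates quantified by mass spectrometry, three biological replicates.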
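Wherever solubility in G1/S (NP-40 vs SDS abundance) is given: HeLa Kyoto cells arrested at G1/S by double thymidine block, proteins quantified by TMT10plex mass spectrometry in mild NP-40 versus SDS extracts, three biological replicates.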
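Wherever thermal stability score vs G1/S (z-score of summed log2 fold changes over temperatures) is given: synchronized HeLa Kyoto cells, proteins quantified by TMT10plex mass spectrometry, three biological replicates, mitosis taken 0.5 h after nocodazole release, G1/S directly after double thymidine block.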

Sequence	solubility change mitosis (log2) (HeLa Kyoto [1])	solubility in G1/S (log2) (HeLa Kyoto [2])	thermal stability score (HeLa Kyoto [3]; [5])	thermal stability score (HeLa Kyoto [3]; cell cycle stage: mitosis)	melting temperature (HeLa Kyoto [4]; cell cycle stage: G1/S)	melting temperature (HeLa Kyoto [4]; cell cycle stage: mitosis)
MQGPPRSLRAGLSLDDFIPGHLQSHIGSSSRGTRVPVIRNGGSNTLNFQFHDPAPRTVCNGGYTPRRDASQHPDPAWYQTWPGPGSKPSASTKIPASQHTQNWSATWTKDSKRRDKRWVKYEGIGPVDESGMPIAPRSSVDRPRDWYRRMFQQIHRKMPDLQLDWTFEEPPRDPRHLGAQQRPAHRPGPATSSSGRSWDHSEELPRSTFNYRPGAFSTVLQPSNQVLRRREKVDNVWTEESWNQFLQELETGQRPKKPLVDDPGEKPSQPIEVLLERELAELSAELDKDLRAIETRLPSPKSSPAPRRAPEQRPPAGPASAWSSSYPHAPYLGSARSLSPHKMADGGSPFLGRRDFVYPSSTRDPSASNGGGSPARREEKKRKAARLKFDFQAQSPKELTLQKGDIVYIHKEVDKNWLEGEHHGRLGIFPANYVEVLPADEIPKPIKPPTYQVLEYGEAVAQYTFKGDLEVELSFRKGEHICLIRKVNENWYEGRITGTGRQGIFPASYVQVSREPRLRLCDDGPQLPTSPRLTAAARSARHPSSPSALRSPADPIDLGGQTSPRRTGFSFPTQEPRPQTQNLGTPGPALSHSRGPSHPLDLGTSSPNTSQIHWTPYRAMYQYRPQNEDELELREGDRVDVMQQCDDGWFVGVSRRTQKFGTFPGNYVAPV [SORBS3]	-0.0255	0.169	-0.822	0.186	51.2 °C	52 °C
MDKQNSQMNASHPETNLPVGYPPQYPPTAFQGPPGYSGYPGPQVSYPPPPAGHSGPGPAGFPVPNQPVYNQPVYNQPVGAAGVPWMPAPQPPLNCPPGLEYLSQIDQILIHQQIELLEVLTGFETNNKYEIKNSFGQRVYFAAEDTDCCTRNCCGPSRPFTLRIIDNMGQEVITLERPLRCSSCCCPCCLQEIEIQAPPGVPIGYVIQTWHPCLPKFTIQNEKREDVLKISGPCVVCSCCGDVDFEIKSLDEQCVVGKISKHWTGILREAFTDADNFGIQFPLDLDVKMKAVMIGACFLIDFMFFESTGSQEQKSGVW [PLSCR1]	-0.349	0.1	-0.835	-1.61	57.7 °C	57.2 °C
MAGGMKVAVSPAVGPGPWGSGVGGGGTVRLLLILSGCLVYGTAETDVNVVMLQESQVCEKRASQQFCYTNVLIPKWHDIWTRIQIRVNSSRLVRVTQVENEEKLKELEQFSIWNFFSSFLKEKLNDTYVNVGLYSTKTCLKVEIIEKDTKYSVIVIRRFDPKLFLVFLLGLMLFFCGDLLSRSQIFYYSTGMTVGIVASLLIIIFILSKFMPKKSPIYVILVGGWSFSLYLIQLVFKNLQEIWRCYWQYLLSYVLTVGFMSFAVCYKYGPLENERSINLLTWTLQLMGLCFMYSGIQIPHIALAIIIIALCTKNLEHPIQWLYITCRKVCKGAEKPVPPRLLTEEEYRIQGEVETRKALEELREFCNSPDCSAWKTVSRIQSPKRFADFVEGSSHLTPNEVSVHEQEYGLGSIIAQDEIYEEASSEEEDSYSRCPAITQNNFLT [NEMP1]	0.0939	0.0297	1.73	6.13	53.8 °C	54.5 °C
MNHDFQALALESRGMGELLPTKKFWEPDDSTKDGQKGIFLGDDEWRETAWGASHHSMSQPIMVQRRSGQGFHGNSEVNAILSPRSESGGLGVSMVEYVLSSSPADKLDSRFRKGNFGTRDAETDGPEKGDQKGKASPFEEDQNRDLKQGDDDDSKINGRGLPNGMDADCKDFNRTPGSRQASPTEVVERLGPNTNPSEGLGPLPNPTANKPLVEEFSNPETQNLDAMEQVGLESLQFDYPGNQVPMDSSGATVGLFDYNSQQQLFQRTNALTVQQLTAAQQQQYALAAAQQPHIAGVFSAGLAPAAFVPNPYIISAAPPGTDPYTAAGLAAAATLAGPAVVPPQYYGVPWGVYPANLFQQQAAAAANNTASQQAASQAQPGQQQVLRAGAGQRPLTPNQGQQGQQAESLAAAAAANPTLAFGQGLATGMPGYQVLAPTAYYDQTGALVVGPGARTGLGAPVRLMAPTPVLISSAAAQAAAAAAAGGTASSLTGSTNGLFRPIGTQPPQQQQQQPSTNLQSNSFYGSSSLTNSSQSSSLFSHGPGQPGSTSLGFGSGNSLGAAIGSALSGFGSSVGSSASSSATRRESLSTSSDLYKRSSSSLAPIGQPFYNSLGFSSSPSPIGMPLPSQTPGHSLTPPPSLSSHGSSSSLHLGGLTNGSGRYISAAPGAEAKYRSASSTSSLFSSSSQLFPPSRLRYNRSDIMPSGRSRLLEDFRNNRFPNLQLRDLIGHIVEFSQDQHGSRFIQQKLERATPAERQMVFNEILQAAYQLMTDVFGNYVIQKFFEFGSLDQKLALATRIRGHVLPLALQMYGCRVIQKALESISSDQQVISEMVKELDGHVLKCVKDQNGNHVVQKCIECVQPQSLQFIIDAFKGQVFVLSTHPYGCRVIQRILEHCTAEQTLPILEELHQHTEQLVQDQYGNYVIQHVLEHGRPEDKSKIVSEIRGKVLALSQHKFASNVVEKCVTHASRAERALLIDEVCCQNDGPHSALYTMMKDQYANYVVQKMIDMAEPAQRKIIMHKIRPHITTLRKYTYGKHILAKLEKYYLKNSPDLGPIGGPPNGML [PUM2]	-0.11	0.446	1.8	1.49	54 °C	50.2 °C
MSQTAMSETYDFLFKFLVIGNAGTGKSCLLHQFIEKKFKDDSNHTIGVEFGSKIINVGGKYVKLQIWDTAGQERFRSVTRSYYRGAAGALLVYDITSRETYNALTNWLTDARMLASQNIVIILCGNKKDLDADREVTFLEASRFAQENELMFLETSALTGENVEEAFVQCARKILNKIESGELDPERMGSGIQYGDAALRQLRSPRRAQAPNAQECGC [RAB4A]	-0.0763	0.0401	-3.03	-3.68	59.5 °C	57.6 °C
MAGKKVLIVYAHQEPKSFNGSLKNVAVDELSRQGCTVTVSDLYAMNLEPRATDKDITGTLSNPEVFNYGVETHEAYKQRSLASDITDEQKKVREADLVIFQFPLYWFSVPAILKGWMDRVLCQGFAFDIPGFYDSGLLQGKLALLSVTTGGTAEMYTKTGVNGDSRYFLWPLQHGTLHFCGFKVLAPQISFAPEIASEEERKGMVAAWSQRLQTIWKEEPIPCTAHWHFGQ [NQO2]	-0.0114	0.396	-1.69	-2.35	59 °C	62 °C
MAAYKLVLIRHGESAWNLENRFSGWYDADLSPAGHEEAKRGGQALRDAGYEFDICFTSVQKRAIRTLWTVLDAIDQMWLPVVRTWRLNERHYGGLTGLNKAETAAKHGEAQVKIWRRSYDVPPPPMEPDHPFYSNISKDRRYADLTEDQLPSCESLKDTIARALPFWNEEIVPQIKEGKRVLIAAHGNSLRGIVKHLEGLSEEAIMELNLPTGIPIVYELDKNLKPIKPMQFLGDEETVRKAMEAVAAQGKAKK [PGAM1]	-0.15	0.324	-0.0829	-2.07	55.7 °C	57.8 °C

From the supplement of paper PMC5998384
